In patent US20030119716A1, “Methods for screening, treating and diagnosing G-protein coupled receptor-related disorders and compositions thereof” (Wyeth, priority 2001, published 2003):

Columns and labels:
Gαq/i chimera = assay: cell-based or functional assay
Gαi1 = assay: cell-based or functional assay

reduction in SRE activation (SRE-luciferase reporter, CHO-D2R cells) (Gαq/i chimera): 70%
attenuation of SRE activation (SRE-luciferase reporter, CHO-D2R cells co-transfected with Gαi1) (Gαi1): 25 to 30%
B1: human RGS2 (protein, UniProt P41220 1-211, looked up)
chain: MQSAMFLAVQHDCRPMDKSAGSGHKSEEKREKMKRTLLKDWKTRLSYFLQNSSTPGKPKTGKKSKQQAFIKPSPEEAQLWSEAFDELLASKYGLAAFRAFLKSEFCEENIEFWLACEDFKKTKSPQKLSSKARKIYTDFIEKEAPKEINIDFQTKTLIAQNIQEATSGCFTTAQKRVYSLMENNSYPRFLESEFYQDLCKKPQITTEPHAT
